Test results: patent US12702697B2, “Compositions and methods for treatment of headache disorders and neuropathic pain” (Washington University, priority 2019, dated 2026)

Test system: mTBI-induced facial mechanical hypersensitivity in mice
Test: Mouse model of mild traumatic brain injury-induced post-traumatic headache (facial mechanical thresholds, low-dose NTG priming)
Assay type: in vivo
Excerpt: Mouse model of mild traumatic brain injury-induced post-traumatic headache. Adult Swiss Webster mice (30-35 g) were subjected to mTBI using a modified closed head weight-drop method. 43, 58 Briefly, mice were anesthetized with 3% isoflurane for 90 seconds and were placed chest down on a foam sponge (4-cm thickness and 0.062-g/cm3 density) directly underneath a hollow cylindrical tube (1.5-cm inner diameter) placed approximately 1 cm vertically over the mouse's head. To induce mTBI, a 30-g weight (1.3-cm diameter and 3.4-cm height) was dropped through the tube from a height of 80 cm, striking the center point between the ears once. All mice regained righting reflex within 2 minutes. […] Sham mice were anesthetized with 3% isoflurane for 90 seconds but not subjected to the weight drop. Facial mechanical thresholds were measured before and at various time points after mTBI. Daily ldIL2 or saline were administered 1 or 7 days after the sham or mTBI procedure. To reveal mTBI-induced hyperalgesia priming, mice received daily i.p. injections of NTG (0.1 mg/kg, i.p.) for 4 to 6 days, starting at 35 days after mTBI. Facial mechanical thresholds were measured between day 35 and 43 days after mTBI. Note that on the days that the mouse behaviors were tested, NTG and/or IL2 were always injected after completing the behavioral tests.
Withdrawal responses to facial mechanical stimuli. The hair on mouse forehead (above and between 2 eyes) was shaved the day before testing. On the test day, the experimenter gently held the mouse on the palm with minimal restraint and applied the calibrated von Frey filament perpendicularly to the shaved skin, causing the filament to bend for 5 seconds. A positive response was determined by the following criteria as previously described: mouse vigorously stroked its face with the forepaw, head withdrawal from the stimulus, or head shaking (Elliott M B et al., Headache 2012; 52:966-84). The up-down paradigm was used to determine the 50% withdrawal threshold.

[1] = daily ld-IL2 starting 1 day after mTBI for 9 days, female Swiss Webster

B1: ld-IL2: Recombinant mouse IL2 (carrier-free; Biolegend), given as daily low-dose i.p. injection (protein, UniProt P04351 21-169, looked up)
Interleukin-2: APTSSSTSSSTAEAQQQQQQQQQQQQHLEQLLMDLQELLSRMENYRNLKLPRMLTFKFYLPKQATELKDLQCLEDELGPLRHVLDLTQSKSFQLEDAENFISNIRVTVVKLKGSDNTFECQFDDESATVVDFLRRWIAFCQSIISTSPQ
3 weeks after cessation of ld-IL2, male Swiss Webster
  persistent facial mechanical hypersensitivity to repeated low-dose NTG after mTBI: failed to establish
9 days of ld-IL2 treatment, male and female mice
  duration of protection from mTBI-induced hyperalgesia priming: at least 30 days
After 3 days of ld-IL2 (day 10), started post-mTBI day 7 (about 26%), male Swiss Webster
  facial mechanical threshold, % of the baseline value: 87%
Daily ld-IL2, male Swiss Webster
  facial mechanical sensitivity of sham mice: did not change
[1]
  hyperalgesia priming revealed by repeated low-dose NTG: completely prevented
  mTBI-induced acute facial mechanical hypersensitivity: completely prevented
Day 15, ld-IL2 day 7 onward for 9 days, male Swiss Webster
  mTBI-induced facial skin hypersensitivity at the end of ld-IL2 treatment: fully reversed
